In patent US20150024465A1, “Carbohydrate-Binding Modules of a New Family” (Novozymes A/S, priority 2003, published 2015):

Columns and labels:
[1] = Binding of CBMX to Avicel (A280 of supernatant after incubation and centrifugation); details: for A280: Absorbance at 280 nm of 200 μl supernatant, absorbance of buffer and Avicel subtracted: 20 mM Tris pH 7.5, 4 hours room temperature
Experimental: The carbohydrate-binding domain with affinity for Avicel® and purified as described in Example 2 (CBMX) was studied further. 50 μl purified CBMX was mixed with 500 μl 20 mM Tris, pH 7.5 containing varying amount of Avicel® (0-100 mg/ml) in an Eppendorf tube. After 4 hours incubation at room temperature with agitation, the samples were centrifuged. 200 μl supernatant was transferred to the well of a microtiter plate (Costar, UV plate) and absorbance read at 280 nm on a microtiter plate reader (SpectraMax® Plus, Molecular Devices).

[2] = Binding of CBMX to PASC (A280 of supernatant); details: for A280: Absorbance at 280 nm of 200 μl supernatant, absorbance of buffer subtracted: 20 mM Tris pH 7.5, 4 hours room temperature
Experimental: A similar binding study was performed with PASC (Phosphoric Acid Swollen Cellulose: To 5 g Avicel® moisted with water 150 ml ice-cold 85 ortho-phosphoric acid is added. After 1 hour stirring on ice bath, 500 ml cold acetone is added. The suspension is filtered and washed, first with acetone and then with water). 50 μl purified CBMX was mixed with 500 μl 20 mM Tris, pH 7.5 containing varying amount of PASO (0-10 mg/ml) in an Eppendorf tube. Samples were incubated 4 hours at room temperature with agitation. After centrifugation, 200 μl supernatant was transferred to the well of a microtiter plate and absorbance read at 280 nm.

[3] = Competition binding assay, references without soluble carbohydrate
Experimental: (§1) Affinity of CBMX for a number of soluble carbohydrates was tested in a competition assay by mixing 100 μl CBMX with both Avicel® (400 μl 50 mg/ml in 20 mM Tris, pH 7.5) and the soluble carbohydrate (dissolved in 500 μl 20 mM Tris, pH 7.5). As references, samples without CBMX or soluble carbohydrate added were used. If CBMX has affinity for the soluble carbohydrate it should be able to keep CBMX in solution which can be measured as increase in absorbance at 280 nm compared to sample without soluble carbohydrate added. After 4 hours incubation at room temperature with agitation, samples were centrifuged and absorbance at 280 nm was read using 200 μl supernatant in the well of a microtiter UV plate. Tested soluble carbohydrates were barley β-glucan (Megazyme, low viscosity), lichenan (Megazyme, Icelandic moss), CMC (carboxymethyl cellulose 7LF, Hercules, USA), Xyloglucan (Megazyme, amyloid, from tamarind seed), lupin galactan (Megazyme) and Locust bean gum (Sigma, G-0753).

[4] = Competition binding assay with CBMX, Avicel and soluble carbohydrate; details: for Difference in A280 between samples with and without CBMX added: Avicel 20 mg/ml, 4 hours room temperature; for Share of CBMX kept in solution by the soluble carbohydrate (in words): competition with Avicel
Experimental: as §1

[5] = Binding of CBMX to Avicel (A280 of supernatant after incubation and centrifugation); details: shorter incubation time (15 min to 1 hour) compared with 4 hours

A280: Absorbance at 280 nm of 200 μl supernatant, absorbance of buffer and Avicel subtracted ([1]; Avicel 0.0 mg/ml (CBMX alone)): 0.0768
A280: Absorbance at 280 nm of 200 μl supernatant, absorbance of buffer and Avicel subtracted ([1]; Avicel 0.391 mg/ml): 0.0777
A280: Absorbance at 280 nm of 200 μl supernatant, absorbance of buffer and Avicel subtracted ([1]; Avicel 0.781 mg/ml): 0.0808
A280: Absorbance at 280 nm of 200 μl supernatant, absorbance of buffer and Avicel subtracted ([1]; Avicel 1.563 mg/ml): 0.0799
A280: Absorbance at 280 nm of 200 μl supernatant, absorbance of buffer and Avicel subtracted ([1]; Avicel 3.125 mg/ml): 0.0729
A280: Absorbance at 280 nm of 200 μl supernatant, absorbance of buffer and Avicel subtracted ([1]; Avicel 6.25 mg/ml): 0.0637
A280: Absorbance at 280 nm of 200 μl supernatant, absorbance of buffer and Avicel subtracted ([1]; Avicel 12.5 mg/ml): 0.0540
A280: Absorbance at 280 nm of 200 μl supernatant, absorbance of buffer and Avicel subtracted ([1]; Avicel 25 mg/ml): 0.0326
A280: Absorbance at 280 nm of 200 μl supernatant, absorbance of buffer and Avicel subtracted ([1]; Avicel 50 mg/ml): 0.0185
A280: Absorbance at 280 nm of 200 μl supernatant, absorbance of buffer and Avicel subtracted ([1]; Avicel 100 mg/ml): 0.0095
Share of the protein that binds to Avicel (in words) ([1]; highest concentrations of Avicel, 4 hours incubation): large majority of the protein binds
Affinity for Avicel (in words) ([1]; summary statement): shown to have affinity
A280: Absorbance at 280 nm of 200 μl supernatant, absorbance of buffer subtracted ([2]; PASC 0.0 mg/ml (CBMX alone)): 0.0753
A280: Absorbance at 280 nm of 200 μl supernatant, absorbance of buffer subtracted ([2]; PASC 0.625 mg/ml): 0.0682
A280: Absorbance at 280 nm of 200 μl supernatant, absorbance of buffer subtracted ([2]; PASC 1.25 mg/ml): 0.0710
A280: Absorbance at 280 nm of 200 μl supernatant, absorbance of buffer subtracted ([2]; PASC 2.5 mg/ml): 0.0618
A280: Absorbance at 280 nm of 200 μl supernatant, absorbance of buffer subtracted ([2]; PASC 5 mg/ml): 0.0512
A280: Absorbance at 280 nm of 200 μl supernatant, absorbance of buffer subtracted ([2]; PASC 10 mg/ml): 0.0471
Affinity for PASC (in words) ([2]; increasing amount of PASC reduces absorbance of CBMX in the supernatant): has affinity
Difference in A280 between samples with and without CBMX added ([3]; None - Only Avicel (20 mg/ml) and CBMX, no soluble carbohydrate): 0.018
Difference in A280 between samples with and without CBMX added ([3]; None - Only CBMX, no Avicel): 0.108
Difference in A280 between samples with and without CBMX added ([4]; CMC 25 mg/ml): 0.129
Share of CBMX kept in solution by the soluble carbohydrate (in words) ([4]; CMC): almost all
Difference in A280 between samples with and without CBMX added ([4]; Galactan 20 mg/ml): 0.043
Difference in A280 between samples with and without CBMX added ([4]; Lichenan 20 mg/ml): 0.025
Difference in A280 between samples with and without CBMX added ([4]; Locust bean gum 25 mg/ml): 0.087
Difference in A280 between samples with and without CBMX added ([4]; Xyloglucan 11 mg/ml): 0.052
Difference in A280 between samples with and without CBMX added ([4]; beta-Glucan 20 mg/ml): 0.100
Share of CBMX kept in solution by the soluble carbohydrate (in words) ([4]; beta-glucan): almost all
Affinity of CBMX for the soluble carbohydrate (in words) ([4]; galactan): to some extent
Share of CBMX kept in solution by the soluble carbohydrate (in words) ([4]; galactan): about half
Affinity of CBMX for the soluble carbohydrate (in words) ([4]; lichenan): no affinity
Share of CBMX kept in solution by the soluble carbohydrate (in words) ([4]; lichenan): does not result in any increase
Share of CBMX kept in solution by the soluble carbohydrate (in words) ([4]; locust bean gum): the majority
Affinity of CBMX for the soluble carbohydrate (in words) ([4]; xyloglucan): to some extent
Share of CBMX kept in solution by the soluble carbohydrate (in words) ([4]; xyloglucan): about half
Completeness of binding to Avicel (in words) [5]: less complete binding
B1: CBMX: Carbohydrate-binding module of Pseudoplectania nigrella GH61 (positions 34-174 of SEQ ID NO:2), expressed in Aspergillus oryzae, purified on Avicel (protein, listed as Pseudoplectania nigrella)
chain: SSGTSNDKAVASSSIAAVDPVTSSVVASVQVPNFTATDVPTFTATDIPTFTATDVPIFTKKPQQPSTLLTRTRTHASVSFVAKPSAFIPKPSASTIPSKPKTPEEVNKCLDAVNACITQAQSSIGGVVNFEPCESQRALCY
